For experiment [1], the target named is Human SOD1 in sporadic ALS (sALS) spinal cord homogenate (human) (UniProt P00441). Kind of experiment: cell-based or functional assay.
For experiment [2] the target is unchanged. In words: immunoprecipitation with antibody-linked magnetic beads; immunoblot of the flow-through of sALS patient 4 spinal cord homogenate. (In general: Immunoblotting shows a protein as a band on a membrane.)

Results on 4 substances are retold here after patent US20260258472A1.

Sequence of UniProt P00441 (P00441 2-154 limits assumed): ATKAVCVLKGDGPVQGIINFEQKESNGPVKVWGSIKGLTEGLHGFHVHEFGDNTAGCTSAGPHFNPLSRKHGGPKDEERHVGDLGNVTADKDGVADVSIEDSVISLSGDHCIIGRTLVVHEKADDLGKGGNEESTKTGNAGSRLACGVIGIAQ

As to “Mouse-anti-SOD1 antibody, clone O98B10 (pan-SOD1; BioLegend #850702)”, in experiment [1], the 50% ThT (RFU), SOD1 RT-QuIC after immunodepletion came out at 27300 RFU and the Lag phase (hours), SOD1 RT-QuIC after immunodepletion came to 62.7 h. For the same substance, in experiment [2], the percent SOD1 remaining in flow-through compared to input worked out at 23%.
In the same order, the values of “Isotype control antibody mIgG2a (ThermoFisher #MA110418)” are 27600 RFU, 57.6 h and 28%.
For “Anti-human SOD1 antibody C4F6 (misfolded SOD1; MediMabs #MM-0070-2-P)”, in experiment [1], the 50% ThT (RFU), SOD1 RT-QuIC after immunodepletion is 21900 RFU and the Lag phase (hours), SOD1 RT-QuIC after immunodepletion amounted to 62.4 h. The percent SOD1 remaining in flow-through compared to input in experiment [2] turned out to be 21%.
For “Isotype control antibody mIgG2b (ThermoFisher #MA110427)”, in experiment [1], the 50% ThT (RFU), SOD1 RT-QuIC after immunodepletion worked out at 32100 RFU and the Lag phase (hours), SOD1 RT-QuIC after immunodepletion came out at 70.2 h. In addition, the percent SOD1 remaining in flow-through compared to input in experiment [2] is 75%.
